Assay results reported in patent US20260242478A1 (published 2026).
Where no end group is shown, it is not given here.

B1: Phage-2768 (peptide)
peptide: AENWCTPRWMCEGI
notes: Clone of the Peptide-180 optimisation library, tested as clonal phage supernatant (peptide fused to pIII of the bacteriophage)
B2: Phage-2845 (peptide)
peptide: WDMLCRPAWMCEGF
modifications: cysteine pairing not given here; also: fused to pIII of bacteriophage, linker and pIII sequence not given here
notes: Clonal phage of the Peptide-180 optimization library, tested as crude phage supernatant; not shown: fused to pIII of the bacteriophage
B3: Phage-2767 (peptide)
peptide: DVTWCIPPWMCMYN
notes: as for B1
B4: Phage-2843 (peptide)
peptide: MLPICKPDWMCAGF
modifications: cysteine pairing not given here; also: fused to pIII of bacteriophage, linker and pIII sequence not given here
notes: as for B2
B5: Phage-2757 (peptide)
peptide: GEIRCSPAWMCDGF
notes: as for B1
B6: Phage-2846 (peptide)
peptide: WEVRCVPEWMCVGF
modifications: cysteine pairing not given here; also: fused to pIII of bacteriophage, linker and pIII sequence not given here
notes: as for B2
B7: Phage-2842 (peptide)
peptide: PEVMCRPVWMCLGF
modifications: cysteine pairing not given here; also: fused to phage pIII, linker not given here
notes: as for B2
B8: Phage-2769 (peptide)
peptide: SYKWCTPDWMCVAV
notes: as for B1
B9: Phage-2759 (peptide)
peptide: MQKMCIPTWMCDGL
notes: as for B1
B10: Phage-2837 (peptide)
peptide: VDRWCTPPWMCDWQ
modifications: cysteine pairing not given here; also: fused to pIII of bacteriophage, linker and pIII sequence not given here
notes: as for B2
B11: Phage-2760 (peptide)
peptide: PVKMCTPAWMCSER
notes: as for B1
B12: Phage-2763 (peptide)
peptide: FEKWCTPTWMCWPY
notes: as for B1
B13: Phage-2844 (peptide)
peptide: VVAMCKPAWMCAGL
modifications: cysteine pairing not given here; also: fused to pIII of bacteriophage, linker and pIII sequence not given here
notes: as for B2
B14: Phage-2838 (peptide)
peptide: HPKLCTPEWMCVIQ
modifications: cysteine pairing not given here; also: fused to pIII of bacteriophage, linker and pIII sequence not given here
notes: as for B2
B15: Phage-2770 (peptide)
peptide: QIKWCIPMWMCEGE
notes: as for B1
B16: Phage-2756 (peptide)
peptide: AHNWCTPAWMCMWD
modifications: cysteine pairing not given here; also: fused to pIII, displayed on bacteriophage
notes: as for B1
B17: Phage-2738 (Peptide-180 library clone) (peptide)
peptide: WEKLCRPAWMCAAY
modifications: cysteine pairing not given here; also: fused to pIII, displayed on bacteriophage
B18: Phage-2836 (peptide)
peptide: DWKLCKPTWMCESL
modifications: cysteine pairing not given here; also: fused to pIII of bacteriophage, linker and pIII sequence not given here
notes: as for B2
B19: Phage-2758 (peptide)
peptide: MVHWCTPSWMCSAL
notes: Clone of the Peptide-180 optimisation library, tested as clonal phage supernatant (peptide fused to pIII of the bacteriophage); Row read against Peptide-180: MVHWCTPSWMCSAL
B20: Phage-2835 (peptide)
peptide: VAKLCTPAWMCSAM
modifications: cysteine pairing not given here; also: fused to pIII of bacteriophage, linker and pIII sequence not given here
notes: as for B2
B21: Phage-2762 (peptide)
peptide: WINWCTPQWMCADL
modifications: cysteine pairing not given here; also: fused to pIII, displayed on bacteriophage
notes: as for B1
B22: Phage-2839 (peptide)
peptide: DSHWCMPVWMCMGL
modifications: cysteine pairing not given here; also: fused to pIII of bacteriophage, linker and pIII sequence not given here
notes: as for B2
B23: Phage-2761 (peptide)
peptide: PWKWCTPVWMCQGV
notes: as for B1
B24: Phage-2764 (peptide)
peptide: ENHWCRPMWMCETI
notes: as for B1
B25: Phage-2765 (peptide)
peptide: HAIWCIPEWMCAFN
modifications: cysteine pairing not given here; also: fused to pIII, displayed on bacteriophage
notes: as for B1
B26: Phage-2766 (peptide)
peptide: VEKWCTPAWMCSTS
notes: as for B1
B27: Phage-2840 (peptide)
peptide: EPQWCIPKWMCDHM
modifications: cysteine pairing not given here; also: fused to pIII of bacteriophage, linker and pIII sequence not given here
notes: as for B2
B28: Phage-2841 (peptide)
peptide: ESIRCTPAWMCVEM
modifications: cysteine pairing not given here; also: fused to pIII of bacteriophage, linker and pIII sequence not given here
notes: as for B2

Experiments:
006 PSMA Fab [1] = target: T1, 006 PSMA Fab (biotinylated (site not stated)); test: clonal phage ELISA on biotinylated PSMA Fab captured on neutravidin plates, anti-M13-HRP detection;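 further: crude clonal phage supernatants added to wells preincubated with PSMA antigen or with blocking buffer only (no wash between), briefly incubated, then washed before detecting bound phage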
T1 construct: Biotinylated PSMA Fab captured on neutravidin coated plates in the panning ELISA; also called Anti-PSMA Fab

006 PSMA Fab [2] = target: T1, 006 PSMA Fab; test: clonal phage ELISA on captured PSMA Fab, wells pre-incubated with PSMA antigen as competitor
Description: (§1) Clonal phage were harvested as crude supernatants and screened via standard ELISAs. […] Prior to the addition of clonal phage. wells were incubated with blocking buffer and PSMA antigen or blocking buffer alone. Without washing or aspirating, clonal phage supernatants were then added to the wells and incubated for a short time. Wells were then washed followed by detection of bound phage using a horse radish conjugated anti-M13 antibody.

[3] = target: PSMA Fab (anti-PSMA Fab; 006 PSMA Fab); test: phage binding ELISA; clonal phage supernatant on biotinylated PSMA Fab captured on neutravidin plate; anti-M13 HRP detection
Description: as §1

[4] = target: PSMA Fab (anti-PSMA Fab; 006 PSMA Fab); test: phage binding ELISA on captured PSMA Fab; wells first incubated with PSMA antigen as competitor; anti-M13 HRP detection
Description: as §1

006 PSMA Fab [5] = target: T2, 006 PSMA Fab; test: clonal phage ELISA on biotinylated PSMA Fab captured on neutravidin plates, anti-M13 HRP detection;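 further: crude clonal phage supernatants tested, before phage were added, wells were pretreated with PSMA antigen in blocking buffer or with blocking buffer only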
T2 construct: also called Anti-PSMA Fab
Description: as §1

006 PSMA Fab [6] = target: T2, 006 PSMA Fab; test: clonal phage ELISA on captured PSMA Fab pre-incubated with PSMA antigen as competitor, anti-M13 HRP detection;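 further: crude clonal phage supernatants tested by ELISA, wells first treated with blocking buffer plus PSMA antigen, bound phage read out via HRP-linked anti-M13 antibody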
Description: as §1

Binder	phage binding ELISA signal (006 PSMA Fab [1])	phage binding ELISA signal in presence of PSMA antigen (006 PSMA Fab [2])	Phage binding ELISA signal, Anti-PSMA Fab (006 PSMA Fab [5])	Phage binding ELISA signal, Anti-PSMA Fab with PSMA antigen (006 PSMA Fab [6])	further results
B1	0.655	0.201	–	–	–
WEKWCTPPWMCHDM [Phage-2732 (Peptide-180 library clone)]	–	–	–	–	Phage binding ELISA signal, Anti-PSMA Fab [3]: 0.733; Phage binding ELISA signal, Anti-PSMA Fab with PSMA antigen [4]: 0.0669
FENWCTPYWMCSGM [Phage-2739 (Peptide-180 library clone)]	–	–	–	–	Phage binding ELISA signal, Anti-PSMA Fab [3]: 0.712; Phage binding ELISA signal, Anti-PSMA Fab with PSMA antigen [4]: 0.0884
IVKWCTPAWMCDQQ [Phage-2736 (Peptide-180 library clone)]	–	–	–	–	Phage binding ELISA signal, Anti-PSMA Fab [3]: 0.72; Phage binding ELISA signal, Anti-PSMA Fab with PSMA antigen [4]: 0.0809
B2	–	–	2.48	0.157	–
B3	0.655	0.0814	–	–	–
B4	–	–	2.49	0.0942	–
B5	0.682	0.104	–	–	–
B6	–	–	2.48	0.119	–
TNNWCIPSWMCDIR [Phage-2737 (Peptide-180 library clone)]	–	–	–	–	Phage binding ELISA signal, Anti-PSMA Fab [3]: 0.718; Phage binding ELISA signal, Anti-PSMA Fab with PSMA antigen [4]: 0.0629
B7	–	–	2.51	0.112	–
B8	0.651	0.0709	–	–	–
B9	0.673	0.0817	–	–	–
B10	–	–	0.429	0.0626	–
B11	0.67	0.0866	–	–	–
B12	0.661	0.0829	–	–	–
B13	–	–	2.48	0.0731	–
B14	–	–	0.424	0.104	–

Binder	phage binding ELISA signal (006 PSMA Fab [1])	phage binding ELISA signal in presence of PSMA antigen (006 PSMA Fab [2])	Phage binding ELISA signal, Anti-PSMA Fab (006 PSMA Fab [5])	Phage binding ELISA signal, Anti-PSMA Fab with PSMA antigen (006 PSMA Fab [6])	further results
B15	0.651	0.0554	–	–	–
B16	0.682	0.0753	–	–	–
B17	–	–	–	–	Phage binding ELISA signal, Anti-PSMA Fab [3]: 0.715; Phage binding ELISA signal, Anti-PSMA Fab with PSMA antigen [4]: 0.0754
B18	–	–	0.43	0.0664	–
DIKWCTPSWMCPAK [Phage-2733 (Peptide-180 library clone)]	–	–	–	–	Phage binding ELISA signal, Anti-PSMA Fab [3]: 0.729; Phage binding ELISA signal, Anti-PSMA Fab with PSMA antigen [4]: 0.0862
B19	0.677	0.1	–	–	–
B20	–	–	0.431	0.0638	–
B21	0.662	0.13	–	–	–
B22	–	–	0.423	0.156	–
B23	0.669	0.0937	–	–	–
QMPLCIPQWMCTNN [Phage-2734 (Peptide-180 library clone)]	–	–	–	–	Phage binding ELISA signal, Anti-PSMA Fab [3]: 0.723; Phage binding ELISA signal, Anti-PSMA Fab with PSMA antigen [4]: 0.0562
B24	0.66	0.0683	–	–	–
B25	0.658	0.124	–	–	–
HGKLCTPSWMCNGF [Phage-2735 (Peptide-180 library clone)]	–	–	–	–	Phage binding ELISA signal, Anti-PSMA Fab [3]: 0.721; Phage binding ELISA signal, Anti-PSMA Fab with PSMA antigen [4]: 0.0619
B26	0.657	0.065	–	–	–
B27	–	–	0.423	0.0608	–
B28	–	–	0.421	0.0725	–
